Assay results from patent publication US20110152341.
Substitutions are numbered along the chain they refer to.

T1: APP-derived peptide substrate E599Q, H-GLTNIKTEEISEVKMDAQFRHDSGYEVHHQ-NH2
T1 chain: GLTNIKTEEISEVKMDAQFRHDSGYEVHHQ

T2: APP-derived peptide substrate sw E599Q, H-GLTNIKTEEISEVNLDAQFRHDSGYEVHHQ-NH2
T2 chain: T1 chain with K14N, M15L

T3: APP-derived peptide substrate sw D597isoD, H-GLTNIKTEEISEVNLi…-NH2
T3 chain: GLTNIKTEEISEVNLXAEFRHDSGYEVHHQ

T4: APP-derived peptide substrate swedish (sw), H-GLTNIKTEEISEVNLDAEFRHDSGYEVHHQ-NH2
T4 chain: T3 chain with X16D

T5: APP-derived peptide substrate wildtyp (wt), H-GLTNIKTEEISEVKMDAEFRHDSGYEVHHQ-NH2
T5 chain: T1 chain with Q18E

T6: APP-derived peptide substrate D597isoD, H-GLTNIKTEEISEVKMi…-NH2
T6 chain: T1 chain with D16X, Q18E

B1: Recombinant human meprin β (R&D systems) (protein)
chain: TPENFDVDGGMDQDIFDINEGLGLDLFEGDIRLDRAQIRNSIIGEKYRWPHTIPYVLEDSLEMNAKGVILNAFERYRLKTCIDFKPWAGETNYISVFKGSGCWSSVGNRRVGKQELSIGANCDRIATVQHEFLHALGFWHEQSRSDRDDYVRIMWDRILSGREHNFNTYSDDISDSLNVPYDYTSVMHYSKTAFQNGTEPTIVTRISDFEDVIGQRMDFSDSDLLKLNQLYNCSSSLSFMDSCSFELENVCGMIQSSGDNADWQRVSQVPRGPESDHSNMGQCQGSGFFMHFDSSSVNVGATAVLESRTLYPKRGFQCLQFYLYNSGSESDQLNIYIREYSADNVDGNLTLVEEIKEIPTGSWQLYHVTLKVTKKFRVVFEGRKGSGASLGGLSIDDINLSETRCPHHIWHIRNFTQFIGSPNGTLYSPPFYSSKGYAFQIYLNLAHVTNAGIYFHLISGANDDQLQWPCPWQQATMTLLDQNPDIRQRMSNQRSITTDPFMTTDNGNYFWDRPSKVGTVALFSNGTQFRRGGGYGTSAFITHERLKSRDFIKGDDVYILLTVEDISHLNSTQIQLTPAPSVQDLCSKTTCKNDGVCTVRDGKAECRCQSGEDWWYMGERCEKRGSTRDT
B2: Recombinant human meprin α (R&D systems) (protein)
chain: VPIKYLPEENVHDADFGEQKDISEINLAAGLDLFQGDILLQKSRNGLRDPNTRWTFPIPYILADNLGLNAKGAILYAFEMFRLKSCVDFKPYEGESSYIIFQQFDGCWSEVGDQHVGQNISIGQGCAYKAIIEHEILHALGFYHEQSRTDRDDYVNIWWDQILSGYQHNFDTYDDSLITDLNTPYDYESLMHYQPFSFNKNASVPTITAKIPEFNSIIGQRLDFSAIDLERLNRMYNCTTTHTLLDHCTFEKANICGMIQGTRDDTDWAHQDSAQAGEVDHTLLGQCTGAGYFMQFSTSSGSAEEAALLESRILYPKRKQQCLQFFYKMTGSPSDRLVVWVRRDDSTGNVRKLVKVQTFQGDDDHNWKIAHVVLKEEQKFRYLFQGTKGDPQNSTGGIYLDDITLTETPCPTGVWTVRNFSQVLENTSKGDKLQSPRFYNSEGYGFGVTLYPNSRESSGYLRLAFHVCSGENDAILEWPVENRQVIITILDQEPDVRNRMSSSMVFTTSKSHTSPAINDTVIWDRPSRVGTYHTDCNCFRSIDLGWSGFISHQMLKRRSFLKNDDLIIFVDFEDITHLSQTEVPTKGKRLSPQGLILQGQEQQVSEEGSGKAMLEEALPVSLSQGQPSRQKRSVENTGPLEDHNWPQYFRDPCDPNPCQNDGICVNVKGMASCRCISGHAFFYTGERCQAV
B3: Human meprin β transiently overexpressed in HEK293 cells (pcDNA-hMPβ) (protein)
chain: NSIIGEKYRWPHTIPYVLEDSLEMNAKGVILNAFERYRLKTCIDFKPWAGETNYISVFKGSGCWSSVGNRRVGKQELSIGANCDRIATVQHEFLHALGFWHEQSRSDRDDYVRIMWDRILSGREHNFNTYSDDISDSLNVPYDYTSVMHYSKTAFQNGTEPTIVTRISDFEDVIGQRMDFSDSDLLKLNQLYNCSSSLSFMDSCSFELENVCGMIQSSGDNADWQRVSQVPRGPESDHSNMGQCQGSGFFMHFDSSSVNVGATAVLESRTLYPKRGFQCLQFYLYNSGSESDQLNIYIREYSADNVDGNLTLVEEIKEIPTGSWQLYHVTLKVTKKFRVVFEGRKGSGASLGGLSIDDINLSETRCPHHIWHIRNFTQFIGSPNGTLYSPPFYSSKGYAFQIYLNLAHVTNAGIYFHLISGANDDQLQWPCPWQQATMTLLDQNPDIRQRMSNQRSITTDPFMTTDNGNYFWDRPSKVGTVALFSNGTQFRRGGGYGTSAFITHERLKSRDFIKGDDVYILLTVEDISHLNSTQIQLTPAPSVQDLCSKTTCKNDGVCTVRDGKAECRCQSGEDWWYMGERCEKRGSTRDTIVIAVSSTVAVFALMLIITLVSVYCTRKKYRERMSSNRPNLTPQNQHAF

Tests used:
[1] = biological target: T1, APP-derived peptide substrate E599Q, …
[2] = biological target: T2, APP-derived peptide substrate sw E599Q, …
[3] = biological target: T3, APP-derived peptide substrate sw …
[4] = biological target: T4, APP-derived peptide substrate swedish …
[5] = biological target: T5, APP-derived peptide substrate wildtyp …
[6] = biological target: T6, APP-derived peptide substrate D597isoD, …
[7] = biological target: Human APP wildtyp transiently overexpressed in HEK293 cells (pcDNA-hAPP)
[8] = biological target: Human APP with swedish mutation K595N, M596L overexpressed in HEK293 cells (pcDNA-hAPPsw)
[9] = biological target: Human APP with mutation E599Q overexpressed in HEK293 cells (pcDNA-hAPP/E3Q)
Sequence of Human APP with mutation E599Q overexpressed in HEK293 cells (pcDNA-hAPP/E3Q) (chain, as listed by the source E599Q): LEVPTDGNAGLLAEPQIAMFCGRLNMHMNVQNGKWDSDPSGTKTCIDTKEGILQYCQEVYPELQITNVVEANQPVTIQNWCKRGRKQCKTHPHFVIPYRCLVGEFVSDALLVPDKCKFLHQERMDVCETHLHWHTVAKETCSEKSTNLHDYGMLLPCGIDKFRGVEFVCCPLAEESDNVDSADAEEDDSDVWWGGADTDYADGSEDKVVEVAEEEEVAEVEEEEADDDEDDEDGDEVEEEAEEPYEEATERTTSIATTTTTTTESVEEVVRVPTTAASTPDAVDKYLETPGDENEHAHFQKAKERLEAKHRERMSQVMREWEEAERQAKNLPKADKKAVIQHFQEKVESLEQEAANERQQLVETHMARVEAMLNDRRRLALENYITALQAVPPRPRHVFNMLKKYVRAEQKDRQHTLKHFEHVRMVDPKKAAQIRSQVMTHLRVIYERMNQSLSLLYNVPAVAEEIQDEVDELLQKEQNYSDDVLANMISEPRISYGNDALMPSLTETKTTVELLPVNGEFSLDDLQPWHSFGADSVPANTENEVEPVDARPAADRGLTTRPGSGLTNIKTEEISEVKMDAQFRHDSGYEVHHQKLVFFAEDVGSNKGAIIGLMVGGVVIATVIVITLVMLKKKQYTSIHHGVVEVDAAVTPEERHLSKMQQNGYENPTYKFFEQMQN

| Protein | peptide cleavage, fragments by MALDI-TOF mass spectrometry (numbering according to substrate 1-30) [1] | peptide cleavage, fragments by MALDI-TOF mass spectrometry (numbering according to substrate 1-30) [2] | peptide cleavage, fragments by MALDI-TOF mass spectrometry (numbering according to substrate 1-30) [3] | peptide cleavage, fragments by MALDI-TOF mass spectrometry (numbering according to substrate 1-30) [4] | peptide cleavage, fragments by MALDI-TOF mass spectrometry (numbering according to substrate 1-30) [5] | peptide cleavage, fragments by MALDI-TOF mass spectrometry (numbering according to substrate 1-30) [6] | amount of secreted Aβ (ELISA from IBL, non specific for the Aβ N-terminus) [7] | generated Aβ species by urea western-blot after immuno-precipitation [7] | secreted Aβ estimated with antibody 6E10 (ELISA) [7] | secretion of Aβ (ELISA, IBL kit with antibody 6E10), with and without 20 µM actinonin [7] | secreted Aβ estimated with antibody 6E10 (ELISA) [8] | amount of secreted Aβ (ELISA from IBL, non specific for the Aβ N-terminus) [9] | secreted Aβ estimated with antibody 6E10 (ELISA) [9] |
| --- | --- | --- | --- | --- | --- | --- | --- | --- | --- | --- | --- | --- | --- |
| B1 | The fragments 8-30, 9-30, 1-22, 1-21, 12-30 17-30 18-30 9-21 were identified. | The fragments 16-30, 1-15, 9-21 and 9-20 were identified. | The fragment 12-30 were identified. | The fragments 16-30, 17-30 1-15 and 18-30 were identified. | The fragments 1-16, 1-15, 17-30, and 18-30 were identified. | The fragments 1-15, 1-16, 17-30 and 16-30 were identified. |  |  |  |  |  |  |  |
| B2 | The fragments 5-30, 7-30, 5-21, 12-30 and 7-21 were identified. | The fragments 1-21, 7-30 and 5-30 were identified. | The fragments 5-30 and 7-30 were identified. | The fragments 5-30, 7-30 and 16-30 were identified. | The fragments 5-30, 7-30, 17-30 and 16-30 were identified. | The fragments 5-30, 7-30, 1-21, 1-15, 17-30 and 16-30 were identified. |  |  |  |  |  |  |  |
| B3 |  |  |  |  |  |  | significantly increased for APPwt and APP/E3Q | revealed the formation of an additional Aβ species after co-transfection with hAPP and human meprin β compared to transfection with hAPP. This additional Aβ species co-migrates with Aβ3-40. | Secretion of Aβ is significantly increased after transfection with pcDNA-hMPβ and pcDNA-hAPP wildtyp, swedish and E3Q. | Secretion of Aβ is significantly increased in HEK293 after transient overexpression of hAPP and hMPβ (see FIG. 26). This increase is reduced to almost the basal level by the addition of 20 µM actinonin. | Secretion of Aβ is significantly increased after transfection with pcDNA-hMPβ and pcDNA-hAPP wildtyp, swedish and E3Q. | significantly increased for APPwt and APP/E3Q | Secretion of Aβ is significantly increased after transfection with pcDNA-hMPβ and pcDNA-hAPP wildtyp, swedish and E3Q. |
